The text below walks through data of paper PMC5750328, “Study on oligomerization of glutamate decarboxylase from Lactobacillus brevis using asymmetrical flow field-flow fractionation (AF4) with light scattering techniques” (Analytical and Bioanalytical Chemistry, 2017).

By stoichiometry N is commonly meant a count of units in the complex or per binding partner.

Data set [1] deals with the molecule itself. In words: asymmetrical flow field-flow fractionation with UV, MALS and dRI detection (AF4-UV-MALS-dRI); self-association; carrier liquid 10 mM citrate-phosphate buffer pH 6, room temperature; relative amounts from deconvoluted UV fractograms at 280 nm.
Data set [2] deals with the molecule itself. The experiment in a line: asymmetrical flow field-flow fractionation with UV, MALS and dRI detection (AF4-UV-MALS-dRI); self-association; carrier liquid 10 mM citrate-phosphate buffer pH 8, room temperature; relative amounts from deconvoluted UV fractograms at 280 nm.

B1: glutamate decarboxylase (LbGadB) from Lactobacillus brevis DSM 1269, recombinant (enzyme, UniProt A9ZM78 1-480, looked up)
chain: MMNKNDQETQQMINNVDLEKTFLGSVEAGQSLPTYTLPDDPMAPDVAAQLVEHYRLNEAKANQNLATFCTTQMEPQADELMKNALNTNAIDKSEYPKTAAMENYCVSMIAHLWGIPDNEKIYDDFIGTSTVGSSEGCMLGGLALLHSWKHRAKAAGFDIEDLHSHKPNLVIMSGYQVVWEKFCTYWNVEMRQVPINGDQVSLDMDHVMDYVDENTIGIIGIEGITYTGSVDDIQTLDNLVTEYNKTATMPVRIHVDAAFGGLFAPFVDGFNPWDFRLKNVVSINVSGHKYGMVYPGLGWIVWRHDTADILPAEMRFQVPYLGKTVDSIAINFSHSGAHISAQYYNFIRFGLSGYKTIMQNVRKVSLKLTAALKTYGIFDILVDGSQLPINCWKLADDAPVGWTLYDLESELAKYGWQVPAYPLPKNRDDVTISRIVVRPSMTMTIADDFLDDLKLAIDGLNHTFGVTTTVDQDNKTTVRS
notes: glutamate decarboxylase LbGadB of Lactobacillus brevis DSM 1269; gene amplified from genomic DNA with a forward primer that holds the ATG (NdeI site) and a reverse primer with an XhoI site, cloned in pET21b; gene deposited as GenBank KX417371; Oligomeric state depends on pH: dimer at pH 7-8, hexamer at pH 6, so copies is left empty; the whole gene appears to have been cloned; Cloning NdeI/XhoI in …
On to B1, for which the “stoichiometry N” value in data set [1] is 6; in data set [2], 2.
